Biological target: SARS-CoV-2 spike (S) protein in the postfusion state, in situ on the viral membrane (SARS-CoV-2)
Experiment: cryo-EM structure

## SARS-CoV-2 spike (S) protein in the postfusion state, in situ on the viral membrane (natural protein)
  stoichiometry N: 3

— article PMC8640741
